Test results from article PMC6602295, “Structural mechanism for guanylate-binding proteins (GBPs) targeting by the Shigella E3 ligase IpaH9.8” (PLoS Pathogens, 2019).

Biological target: T1, GBP1^LG-MD (LG-MD region of guanylate-binding protein 1, residues 1-479) (human, UniProt P32455 1-479)
T1 construct: also called C-terminally truncated GBP1; source: E. coli BL21(DE3), purified (Ni-NTA, ULP1 cleavage, second Ni-NTA, Superdex 200); not shown: His6-SUMO, N-terminal, cleaved
T1 sequence: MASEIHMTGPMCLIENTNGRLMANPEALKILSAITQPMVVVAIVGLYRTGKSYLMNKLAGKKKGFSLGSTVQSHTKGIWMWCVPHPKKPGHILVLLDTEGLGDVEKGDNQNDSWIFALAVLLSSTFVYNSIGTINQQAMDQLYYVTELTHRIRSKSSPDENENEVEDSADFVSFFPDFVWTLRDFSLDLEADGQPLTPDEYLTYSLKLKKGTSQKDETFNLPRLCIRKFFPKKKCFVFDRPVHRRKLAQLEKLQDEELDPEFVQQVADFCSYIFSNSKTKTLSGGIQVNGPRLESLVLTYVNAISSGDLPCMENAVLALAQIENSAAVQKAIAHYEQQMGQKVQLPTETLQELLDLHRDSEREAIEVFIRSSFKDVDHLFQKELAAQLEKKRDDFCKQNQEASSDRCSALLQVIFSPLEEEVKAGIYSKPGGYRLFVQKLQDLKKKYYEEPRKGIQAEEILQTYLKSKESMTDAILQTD
Assay: crystal structure; purified IpaH9.8^LRR and GBP1^LG-MD incubated overnight on ice at a 1.5:1 molar ratio, passed through Superdex 200 (25 mM Tris-HCl pH 8.0, 20 mM NaCl, 2 mM DTT), no nucleotide; crystals at 20°C in 1.6 M sodium/potassium phosphate pH 6.5; 3.6 Å
Details: both partners purified

B1: IpaH9.8^LRR (Leucine-rich repeat domain of IpaH9.8, residues 22-252) (domain or fragment)
chain: TYADYFSAWDKWEKQALPGEERDEAVSRLKECLINNSDELRLDRLNLSSLPDNLPAQITLLNVSYNQLTNLPELPVTLKKLYSASNKLSELPVLPPALESLQVQHNELENLPALPDSLLTMNISYNEIVSLPSLPQALKNLRATRNFLTELPAFSEGNNPVVREYFFDRNQISHIPESILNLRNECSIHISDNPLSSHALPALQRLTSSPDYHGPRIYFSMSDGQQNTLHR
notes: E3 ubiquitin ligase IpaH9.8, Shigella flexneri, LRR domain, residues 22-252; source: E. coli BL21(DE3), purified (Ni-NTA, ULP1 cleavage, second Ni-NTA, Superdex 200); not shown: His6-SUMO, N-terminal, cleaved
binding result: binds
